Measured values reported in US20030194391A1 (published 2003).

T1: mIL-13R1-Fc (catalogue number 491-IR-200, R+D Systems) (mouse, UniProt O09030 26-340)
T1 construct: Bought; also called mIL-13Rα1; mouse IL-13 receptor; not shown: Fc part; captured on plates with anti-human IgG
T1 sequence (looked up): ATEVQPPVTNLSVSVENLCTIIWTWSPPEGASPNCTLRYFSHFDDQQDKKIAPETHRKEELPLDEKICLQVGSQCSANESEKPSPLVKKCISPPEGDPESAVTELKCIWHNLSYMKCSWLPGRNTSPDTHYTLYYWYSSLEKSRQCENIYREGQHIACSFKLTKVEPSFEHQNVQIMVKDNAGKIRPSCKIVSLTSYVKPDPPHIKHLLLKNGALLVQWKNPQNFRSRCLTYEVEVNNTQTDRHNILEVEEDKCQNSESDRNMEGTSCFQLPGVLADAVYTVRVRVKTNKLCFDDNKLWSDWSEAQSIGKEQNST

T2: mIL-13R2-Fc (catalogue number 539-IR-100, R+D Systems) (mouse, UniProt O88786 22-334)
T2 construct: Bought; also called mIL-13Rα2; mouse IL-13 receptor; not shown: Fc part; captured on plates with anti-human IgG
T2 sequence (looked up): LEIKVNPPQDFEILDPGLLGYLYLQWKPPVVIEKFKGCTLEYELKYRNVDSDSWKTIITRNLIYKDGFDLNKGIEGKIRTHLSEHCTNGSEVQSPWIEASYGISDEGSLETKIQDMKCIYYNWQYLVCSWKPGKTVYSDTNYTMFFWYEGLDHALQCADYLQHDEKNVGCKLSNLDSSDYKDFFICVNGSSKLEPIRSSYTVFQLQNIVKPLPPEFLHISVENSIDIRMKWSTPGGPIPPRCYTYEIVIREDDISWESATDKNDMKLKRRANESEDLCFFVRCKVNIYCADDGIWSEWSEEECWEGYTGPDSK

T3: human type-2 IL-4 receptor expressed by the human lung fibroblast cell line A549 (human, UniProt P24394 26-825; P78552 22-427)
T3 sequence (looked up) 1: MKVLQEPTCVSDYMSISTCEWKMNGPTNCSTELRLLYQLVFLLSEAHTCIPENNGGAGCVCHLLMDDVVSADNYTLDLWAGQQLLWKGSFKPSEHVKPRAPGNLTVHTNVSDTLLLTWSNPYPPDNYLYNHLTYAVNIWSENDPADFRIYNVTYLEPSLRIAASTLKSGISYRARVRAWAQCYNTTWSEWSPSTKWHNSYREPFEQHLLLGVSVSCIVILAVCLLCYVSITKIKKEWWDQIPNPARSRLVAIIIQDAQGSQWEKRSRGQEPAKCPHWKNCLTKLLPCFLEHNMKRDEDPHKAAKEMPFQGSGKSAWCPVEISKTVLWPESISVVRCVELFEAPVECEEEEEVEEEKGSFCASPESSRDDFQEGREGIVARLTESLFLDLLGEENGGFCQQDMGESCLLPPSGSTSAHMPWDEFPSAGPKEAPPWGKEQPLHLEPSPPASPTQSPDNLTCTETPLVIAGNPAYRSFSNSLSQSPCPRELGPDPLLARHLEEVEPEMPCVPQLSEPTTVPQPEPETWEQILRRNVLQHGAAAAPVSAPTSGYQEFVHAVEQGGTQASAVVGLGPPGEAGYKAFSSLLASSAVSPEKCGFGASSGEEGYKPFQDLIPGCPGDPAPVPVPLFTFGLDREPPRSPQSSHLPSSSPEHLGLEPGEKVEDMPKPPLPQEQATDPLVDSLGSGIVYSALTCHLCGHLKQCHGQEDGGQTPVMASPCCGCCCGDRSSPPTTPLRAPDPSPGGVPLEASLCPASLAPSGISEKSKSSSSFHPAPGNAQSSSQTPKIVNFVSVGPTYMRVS
T3 sequence (looked up) 2: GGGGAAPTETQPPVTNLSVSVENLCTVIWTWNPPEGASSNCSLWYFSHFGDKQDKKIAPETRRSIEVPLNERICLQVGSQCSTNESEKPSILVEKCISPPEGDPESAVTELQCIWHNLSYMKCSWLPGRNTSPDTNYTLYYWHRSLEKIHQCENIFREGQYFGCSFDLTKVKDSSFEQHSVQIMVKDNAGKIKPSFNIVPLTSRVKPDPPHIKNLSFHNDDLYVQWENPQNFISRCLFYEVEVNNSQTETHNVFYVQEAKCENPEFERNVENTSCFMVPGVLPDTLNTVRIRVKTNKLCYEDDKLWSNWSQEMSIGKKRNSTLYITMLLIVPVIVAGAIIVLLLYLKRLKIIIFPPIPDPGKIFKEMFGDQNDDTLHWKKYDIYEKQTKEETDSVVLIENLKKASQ


What was measured:
[1] = target: T1, mIL-13R1-Fc (catalogue number …); experiment: ELISA, receptor-Fc captured on anti-human IgG, detection with biotinylated anti-mIL-13
Protocol: (§1) ELISAs were set up to determine whether cIL-13 could bind to either of the known mouse IL-13 receptors (mIL-13R1 or mIL-13R2). 96-well Maxisorp plates were coated with anti-human IgG (catalogue number I-3382, Sigma Aldrich) in carbonate-bicarbonate buffer overnight at 4° C. Plates were then blocked with 3% BSA/TBST for 1 hour at RT, washed 3 times in TBST, and incubated with mIL-13R1-Fc or mIL-13R2-Fc (catalogue numbers 491-IR-200 and 539-IR-100 respectively, R+D Systems) for 1 hour at RT. After washing, plates were incubated with dilutions of mIL-13 or cIL-13 or GST-cIL-13 for 1 hour at RT, washed again and incubated with biotinylated anti-mIL-13 (catalogue number BAF413, R+D Systems). Following further washing and incubation with streptavidin conjugated horse-radish peroxidase, the plates were developed with 0-phenylenediamine dihydrochloride peroxidase substrate for 30 minutes.

[2] = target: T2, mIL-13R2-Fc (catalogue number …); experiment: as above
Protocol: as §1

[3] = target: T3, human type-2 IL-4 receptor expressed by …; experiment: cell-based or functional assay

| binding result [1] | binding result [2] | fold decrease in bioactivity against mIL-13 (STAT6 phosphorylation in A549 cells) [3] | Binder |
| --- | --- | --- | --- |
| binds | binds | ~5 fold | chimaeric IL-13 (free cIL-13 generated from GST-cIL-13 by thrombin cleavage) (ligand, also called mouse chimaeric IL-13 vaccine construct) GPVPRSVSLPLTLRELIEELVNITQDQTPLCNGSMVWSVDLAAGGYCAALESLTNISNCNAIEKTQRMLGGLCNRKAPTTVSSLPDTKIEVAQFVKDLLSYTKQLFRHGPF |
| binds | binds |  | GST-cIL-13 (genetic fusion protein of glutathione-S-transferase and chimaeric IL-13) (other, Expressed in E. coli BLR from pGEX4T3-cIL-13; also called GST-cIL-3; not shown: glutathione-S-transferase as encoded by vector pGEX4T3 (Amersham Pharmacia); short spacer which contains the recognition site for thrombin) GPVPRSVSLPLTLRELIEELVNITQDQTPLCNGSMVWSVDLAAGGYCAALESLTNISNCNAIEKTQRMLGGLCNRKAPTTVSSLPDTKIEVAQFVKDLLSYTKQLFRHGPF |
